First the molecules themselves.
B1: HDV Ribozyme (parent)
chain: GGCCGGCAUGGUCCCAGCCUCCUCGCUGGCGCCGGCUGGGCAACAUUCCGAGGGGACCGUCCCCUCGGUAAUGGCGAAUGGGACCCA

This data set covers variants of B1. The data set can be described thus: self-cleavage, relative activity (ratio to wild type); higher = more cleavage; co-transcriptional.
For GGCCGGCGUGGUCCCUGCCUCCUCGCUGGCGCCGGCUGGGCAACAUUCCGAGGGGACCGUCCCCUCGGUAAUGGCGAAUGGGACCCA [A8G A16U], the self-cleavage turned out to be 0.895. GGCCGGCAUGGUCCCAGCCUCCUCGCUGGCGCCGGCUGGGCAACCUUCCGAGGGGACCGUUCCCUCGGUAAUGGCGAAUGGGACCCA [A45C C61U]: the self-cleavage was determined as 0.796. The figure for GGCCGGCAUGGUCCCAGCCUCCUCGCUGGCGCCGGCUGGGCAACAUUCCGAGGGGACCGUCCCGUCGCUAAUGGCGAAUGGGACCCA [C64G G68C] is 0.264; for GGCCGGCAUGGUCCCAGCCUCCUCGCUGGCGCCGGCUGUGCAACAUUCCGAGGGGACCGUCCCCUCCGUAAUGGCGAAUGGGACCCA [G39U G67C] it is 0.746; for GGCCGGCAUGGUCCCAGCCUCCUCGCUGGCGCCGGCUGGGCAACAUUCCGAGGGGACCGUCCCCUCGGUGAUGGCGAAUGGUACCCA [A70G G82U] it is 0.415. The figure for GGCUGCCAUGGUCCCAGCCUCCUCGCUGGCGCCGGCUGGGCAACAUUCCGAGGGGACCGUCCCCUCGGUAAUGGCGAAUGGGACCCA [C4U G6C] is 0; for GGCAGGCAUGGUCCCAGCCUCCUCGCUGGCACCGGCUGGGCAACAUUCCGAGGGGACCGUCCCCUCGGUAAUGGCGAAUGGGACCCA [C4A G31A] it is 0.0415; for GGCCGGCAUGGUCCCAGCCUCCACACUGGCGCCGGCUGGGCAACAUUCCGAGGGGACCGUCCCCUCGGUAAUGGCGAAUGGGACCCA [U23A G25A] it is 0.277. As for GGCCGGCAUGGUCUCAGCCUCCUCGCUGGCGACGGCUGGGCAACAUUCCGAGGGGACCGUCCCCUCGGUAAUGGCGAAUGGGACCCA [C14U C32A], the figure is 0.101; as for GGCCGGCAUGGUCCCAGCCUCCUCGCUGGCGCAGGCCGGGCAACAUUCCGAGGGGACCGUCCCCUCGGUAAUGGCGAAUGGGACCCA [C33A U37C], 0.469. As to GGCCGGCAUGGUCCCAGCCUCCUCGCUGGCGCCGGCUGGGCAACAUUCCGAGGGGACCGUCCCCUCGGUAAUGGCGCAUGGGACCCA [A77C], the self-cleavage was 0.377. As for GGCCGGCAUGGUCCCAGCCUCCUCGCUGGCGCCGGCUGGGCAACAUUCCGAGGGGACCGUCCCCUCGGUAAUGGCGGAUGGGACCCA [A77G], the figure is 0.887.

For GGCCGGCAUUGUCCCCGCCUCCUCGCUGGCGCCGGCUGGGCAACAUUCCGAGGGGACCGUCCCCUCGGUAAUGGCGAAUGGGACCCA [G10U A16C], the self-cleavage was determined as 0.906. GGCCGGCAUGGUCCCAGCCUCCUCGCUGGCGCCGGCUGGGCAACAUUCCGAGGGGAGCGUCCCCUCGGUAAUGGCGCAUGGGACCCA [C57G A77C]: the self-cleavage came out at 0.237. As for GGCCGGCAUGGUCACAGCCUCCUCGCUGGCGCCGGCUGGGCAACCUUCCGAGGGGACCGUCCCCUCGGUAAUGGCGAAUGGGACCCA [C14A A45C], the figure is 0.199; as for GGCCGGCAUGGUCCCAGCCUCCUCGCUGGCGCCGGCUGGGCAACAUUCCCAGGGGACGGUCCCCUCGGUAAUGGCGAAUGGGACCCA [G50C C58G], 0.796; as for GGCCGGCAUGGUACCAGCCUCCUCGCUGGCGCCGGCUGGGCAACAUUCCGAGGGGACCGUCCCCUCGGUGAUGGCGAAUGGGACCCA [C13A A70G], 0.166.

Regarding GGCCGGCAUGGUCCCAGCCUCCUCGCUGGCGCAUGCUGGGCAACAUUCCGAGGGGACCGUCCCCUCGGUAAUGGCGAAUGGGACCCA [C33A G34U], the self-cleavage was 0.0712. The figure for GGCCGGCAUGGUCCCAGCCUCCUCGCUGGCGCCGGCUGGGCAACAUACCGAGGGGACCGUCCCCUCGUUAAUGGCGAAUGGGACCCA [U47A G68U] is 0.944. The figure for GGCCGGCAUGGUCCCAGCCUCCUCGCUGGCGCCGGGUGGGCAACAUUCCGAGGGGACCGUCCCCUAGGUAAUGGCGAAUGGGACCCA [C36G C66A] is 0.162; for GGCCUGCAUGGUCCCAGCCUCCUCGCUGGCGCCGGCUGGGCAACAUUCCGAGGGGACCGUCCCCUCGGUAAUCGCGAAUGGGACCCA [G5U G73C] it is 0.249.

On to GGCCGGCAUGCUCCCAGCCUCCUCGCUGGCGCCGGCUGGGCAACAUUCCGAGGGGACCGUCCCGUCGGUAAUGGCGAAUGGGACCCA [G11C C64G], for which the self-cleavage was found to be 0.514. Turning to GGCCGGCAUGGUCACAGCCUCCUCCCUGGCGCCGGCUGGGCAACAUUCCGAGGGGACCGUCCCCUCGGUAAUGGCGAAUGGGACCCA [C14A G25C], the self-cleavage was determined as 0.201. As for GGCCGGCAUCGUCCCAGCCUCCUCGCUGGCGCCGGCUGGGCAACAUUCCGAGGGGACCGUCCCCUCGGUAAUGGCUAAUGGGACCCA [G10C G76U], the figure is 1.16. The figure for GGCCGGCAUGGUCCCAGCCGCCUCGCUGGCGCCGGCUGGGCAACAUUCCGAGGGGACCGUCCCCUCGGUAAUGGUGAAUGGGACCCA [U20G C75U] is 0.0875; for GGACGGCAUGGUCCCAGCCUCCUCGCUGGCGCCGGCUGGGCAACAUUCCGAGGGGACCGUCCCCUGGGUAAUGGCGAAUGGGACCCA [C3A C66G] it is 0.508. GGCCGGCAUGGUCCCAGCCUCCUCGCUGGCGCCGGCUGGGCAACUUUCCGAGGGGACCGUCCCCUCGGUAAUGGCGAAUGGGACCCC [A45U A87C]: the self-cleavage came to 0.783.

Turning to GGCCGGCAUGGUCCCACCCUCCUCGCUGGCGCCGGCUGGGCAACGUUCCGAGGGGACCGUCCCCUCGGUAAUGGCGAAUGGGACCCA [G17C A45G], the self-cleavage turned out to be 0.119. GGCCGGCAUGGUCCCAGCCUCCUCGCUGGCGCCGGCUGGGCAACAUUCCUAGGGGACCGUCCCCUGGGUAAUGGCGAAUGGGACCCA [G50U C66G]: the self-cleavage was found to be 0.787. As for GGCCGGCAUGGUCCCAGCCUCCUCGCUGGCGCCGGCUGGGCAACAUCCCGAGGGGACCGUCCCCUCGGUAAUGUCGAAUGGGACCCA [U47C G74U], the figure is 0.633. The figure for GGCCGGCAUGAUCCCAGCCUCCUCGCUGGCGCCGGCUGGGCAACAUUCCGAGGGGACCGUCCCCUCGGCAAUGGCGAAUGGGACCCA [G11A U69C] is 0.324.

For GGCCGGCAUGGUCCCAGCCUCCUCGCUGGCGCCGGCUGGGCAACAUCCCGAGGGGACCUUCCCCUCGGUAAUGGCGAAUGGGACCCA [U47C G59U], the self-cleavage was 0.95.

Values taken from the RNAGym collection of RNA variant scans (doi:10.7554/elife.80360).
